These are literature values, as cited in article PMC9092467.

Data set [1] concerns the target His32 (UniProt position 32, FGDVNHTNGNV). Nature of the data set: NMR.
The target of data set [2] is His83 (UniProt position 83, FNEPAHTLYGQ). Nature of the data set: NMR.
Where [3] appears, read: apoprotein (no haem or haem analogue bound).
Where [4] appears, read: holoprotein with gallium protoporphyrin IX, Ga(PPIX), bound.

Where only a bound is given, the exact number is not on record here.

In the case of “Haem acquisition system protein A (hemophore HasA) (Serratia marcescens)”, the pKa in data set [1] (setting [3]) was 7.3; in data set [1] (setting [4]), <4.8; in data set [2] (setting [3]), 5.6; in data set [2] (setting [4]), 9.7.

The pKa is the pH at which an ionisable group is half protonated.
